Results: US20110311523A1

Molecular target: human platelet derived growth factor-α receptor (PDGFRα) (human) (UniProt P16234)
Test: cell-based or functional assay

human platelet derived growth factor-α receptor (PDGFRα) (human), sequence (P16234 24-1089): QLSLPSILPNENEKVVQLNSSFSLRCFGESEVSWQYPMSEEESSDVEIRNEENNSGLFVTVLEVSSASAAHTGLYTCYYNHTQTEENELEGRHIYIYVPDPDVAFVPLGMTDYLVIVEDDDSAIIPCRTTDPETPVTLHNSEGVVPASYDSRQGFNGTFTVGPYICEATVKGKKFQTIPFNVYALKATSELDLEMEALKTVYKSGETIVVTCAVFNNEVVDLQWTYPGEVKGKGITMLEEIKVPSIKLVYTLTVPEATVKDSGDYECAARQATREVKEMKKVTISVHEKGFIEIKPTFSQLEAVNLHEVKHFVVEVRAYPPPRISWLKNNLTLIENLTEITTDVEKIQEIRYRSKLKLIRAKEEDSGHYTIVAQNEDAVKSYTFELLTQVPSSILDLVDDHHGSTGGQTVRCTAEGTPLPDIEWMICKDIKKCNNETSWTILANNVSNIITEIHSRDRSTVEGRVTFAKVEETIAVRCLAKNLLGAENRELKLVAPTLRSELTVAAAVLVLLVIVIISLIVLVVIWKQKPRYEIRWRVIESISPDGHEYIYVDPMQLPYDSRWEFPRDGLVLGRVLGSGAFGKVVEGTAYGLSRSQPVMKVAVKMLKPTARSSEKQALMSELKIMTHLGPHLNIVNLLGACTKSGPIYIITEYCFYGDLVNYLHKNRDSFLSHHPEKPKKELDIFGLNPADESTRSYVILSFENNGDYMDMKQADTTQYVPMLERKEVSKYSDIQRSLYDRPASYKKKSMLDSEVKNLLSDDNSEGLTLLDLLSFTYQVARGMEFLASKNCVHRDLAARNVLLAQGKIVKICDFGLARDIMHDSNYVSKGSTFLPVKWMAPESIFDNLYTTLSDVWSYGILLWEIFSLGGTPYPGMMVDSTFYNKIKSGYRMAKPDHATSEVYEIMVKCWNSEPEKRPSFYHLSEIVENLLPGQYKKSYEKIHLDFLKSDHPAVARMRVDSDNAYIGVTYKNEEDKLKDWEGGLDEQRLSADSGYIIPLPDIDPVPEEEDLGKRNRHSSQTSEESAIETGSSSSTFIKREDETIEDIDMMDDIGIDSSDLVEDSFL

| Substance | decrease in HCMV entry (pp65 positive cells) |
| --- | --- |
| IMC-3G3, a humanized PDGFRα blocking antibody (ImClone Inc.) | 45% |
| PDGF-AA (from UniProt P04085 87-211) (ligand) | 30% |
